According to article PMC11984302:

How the values were obtained:
Conditions in all cases: SICS: thrombin in 1 M KCl (or 150 mM KCl), pH 7.5, 30 min incubation, 300 mV; gel: 16% Tris-Glycine; temperature not stated
[1] = target: T1, thrombin (human plasma, Sigma-Aldrich) (Homo sapiens) (UniProt P00734+P00734); test: single-molecule SICS nanopore
[2] = target: T1, thrombin (human plasma, Sigma-Aldrich) (Homo sapiens); test: single-molecule SICS nanopore; remark: listed apart in the source
[3] = target: T1, thrombin (human plasma, Sigma-Aldrich) (Homo sapiens); test: free translocation nanopore

Question: Which binding signal (% carriers with thrombin bound) [1] does the source give for “TCAGCTTGCGGAGATGCGATGGTTGGTGTGGTTGGATCGAGAAAAAGGTACGCCC / GGGCGTACCTTTTTCTCGATATCGCATCTCCGCAAGCTGA [extended TBA 1 in single-gap DNA carrier]” here?
Answer: The binding signal (% carriers with thrombin bound) was greater than 30.

Question: And the binding signal (% carriers with thrombin bound) [2]?
Answer: The binding signal (% carriers with thrombin bound) was 52.

Question: What about the binding signal (% events with thrombin bound) [3] of the same sequence?
Answer: Its binding signal (% events with thrombin bound) is 14.1.
